T1: truncated 70 kDa form of E-cadherin (p70), endogenous, from DLD1 cells (human, UniProt P12830 463-882, Ser/Thr residues found to be single O-mannosylated (mass spectrometry of AT1636-precipitated p70))
T1 construct: range 463-C-terminus; also called p70 E-cadherin; 70 kDa protein
T1 sequence (looked up): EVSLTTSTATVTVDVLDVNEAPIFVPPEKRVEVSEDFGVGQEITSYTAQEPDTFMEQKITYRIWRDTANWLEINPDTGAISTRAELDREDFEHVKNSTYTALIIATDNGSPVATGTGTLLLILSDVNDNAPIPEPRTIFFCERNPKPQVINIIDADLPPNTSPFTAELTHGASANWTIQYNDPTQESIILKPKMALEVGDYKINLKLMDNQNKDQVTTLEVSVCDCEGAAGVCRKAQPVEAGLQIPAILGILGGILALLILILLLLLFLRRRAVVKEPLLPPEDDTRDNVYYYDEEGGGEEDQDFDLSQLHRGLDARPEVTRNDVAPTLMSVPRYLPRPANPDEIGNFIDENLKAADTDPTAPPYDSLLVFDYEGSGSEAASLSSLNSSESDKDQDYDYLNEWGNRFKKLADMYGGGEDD

T2: full length E-cadherin (about 120 kDa), on human cells or from their lysate (human, UniProt P12830 155-882, O-mannosylated in cells that express TMTC3, as the filing describes)
T2 construct: whole, on cells; also called CDH1; CD324
T2 sequence (looked up): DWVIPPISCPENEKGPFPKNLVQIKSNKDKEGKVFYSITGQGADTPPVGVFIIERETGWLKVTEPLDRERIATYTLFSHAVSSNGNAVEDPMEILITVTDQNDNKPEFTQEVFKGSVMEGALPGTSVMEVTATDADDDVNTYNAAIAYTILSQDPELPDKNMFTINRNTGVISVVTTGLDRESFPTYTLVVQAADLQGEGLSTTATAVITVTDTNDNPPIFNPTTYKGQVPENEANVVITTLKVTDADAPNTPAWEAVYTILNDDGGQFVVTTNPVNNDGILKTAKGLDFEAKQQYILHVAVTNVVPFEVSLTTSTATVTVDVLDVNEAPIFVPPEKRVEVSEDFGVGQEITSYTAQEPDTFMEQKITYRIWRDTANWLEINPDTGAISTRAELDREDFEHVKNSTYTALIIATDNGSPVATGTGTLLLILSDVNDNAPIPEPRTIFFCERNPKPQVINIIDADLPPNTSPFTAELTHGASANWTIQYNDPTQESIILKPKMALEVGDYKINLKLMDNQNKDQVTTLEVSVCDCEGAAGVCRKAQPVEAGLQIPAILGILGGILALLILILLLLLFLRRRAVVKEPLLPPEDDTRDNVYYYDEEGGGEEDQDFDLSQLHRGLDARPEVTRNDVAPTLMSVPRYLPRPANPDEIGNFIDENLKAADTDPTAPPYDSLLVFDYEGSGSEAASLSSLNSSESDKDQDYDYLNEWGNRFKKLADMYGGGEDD

T3: mouse E-cadherin on CMT93 cells (mouse, UniProt P09803 157-884)
T3 construct: whole, on cells
T3 sequence (looked up): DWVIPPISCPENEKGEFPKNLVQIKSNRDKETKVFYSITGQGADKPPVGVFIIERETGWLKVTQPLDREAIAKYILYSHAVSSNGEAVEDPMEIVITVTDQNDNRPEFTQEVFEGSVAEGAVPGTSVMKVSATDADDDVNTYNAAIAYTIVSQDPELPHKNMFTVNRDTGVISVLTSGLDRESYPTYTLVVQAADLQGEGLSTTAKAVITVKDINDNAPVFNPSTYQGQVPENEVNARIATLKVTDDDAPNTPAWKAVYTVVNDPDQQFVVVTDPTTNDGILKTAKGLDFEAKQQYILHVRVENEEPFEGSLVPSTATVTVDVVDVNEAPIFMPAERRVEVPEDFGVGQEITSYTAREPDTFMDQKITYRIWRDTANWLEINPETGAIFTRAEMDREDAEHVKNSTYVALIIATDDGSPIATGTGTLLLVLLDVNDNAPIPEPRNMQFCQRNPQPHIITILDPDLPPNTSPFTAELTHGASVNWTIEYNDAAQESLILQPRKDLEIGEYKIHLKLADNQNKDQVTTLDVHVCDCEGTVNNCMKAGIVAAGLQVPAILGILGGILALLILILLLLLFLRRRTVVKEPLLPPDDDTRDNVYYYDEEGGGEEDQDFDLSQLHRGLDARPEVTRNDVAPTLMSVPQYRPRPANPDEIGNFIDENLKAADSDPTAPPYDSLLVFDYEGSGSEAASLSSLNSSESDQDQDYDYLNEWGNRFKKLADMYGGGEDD

T4: recombinant soluble p70 E-cadherin mouse-Fc fusion protein (human, UniProt P12830 463-709)
T4 construct: range 463-end of the extracellular domain; Made in Expi293 or CHO cells; also called 70 kDa; human p70 E-cadherin-mouseFc-biotin; not shown: FLAG tag on a mouse Fc-tail equipped with a sortase and HIS tag
T4 sequence (looked up): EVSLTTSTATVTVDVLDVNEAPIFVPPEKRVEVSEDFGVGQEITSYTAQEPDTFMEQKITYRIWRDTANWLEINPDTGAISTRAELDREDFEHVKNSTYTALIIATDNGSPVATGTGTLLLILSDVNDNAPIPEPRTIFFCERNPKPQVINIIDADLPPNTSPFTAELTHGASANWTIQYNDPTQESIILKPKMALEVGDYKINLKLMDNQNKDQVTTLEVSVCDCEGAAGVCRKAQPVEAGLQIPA

T5: recombinant soluble full length E-cadherin (without transmembrane and intracellular domains) mouse-Fc fusion … (human, UniProt P12830 155-709)
T5 construct: extracellular domain; Made in Expi293 or CHO cells; A C-tag-only version is also described; the ELISA used the mFc proteins; also called E-cadherin mFc; not shown: FLAG tag on a mouse Fc-tail equipped with a sortase and HIS tag
T5 sequence (looked up): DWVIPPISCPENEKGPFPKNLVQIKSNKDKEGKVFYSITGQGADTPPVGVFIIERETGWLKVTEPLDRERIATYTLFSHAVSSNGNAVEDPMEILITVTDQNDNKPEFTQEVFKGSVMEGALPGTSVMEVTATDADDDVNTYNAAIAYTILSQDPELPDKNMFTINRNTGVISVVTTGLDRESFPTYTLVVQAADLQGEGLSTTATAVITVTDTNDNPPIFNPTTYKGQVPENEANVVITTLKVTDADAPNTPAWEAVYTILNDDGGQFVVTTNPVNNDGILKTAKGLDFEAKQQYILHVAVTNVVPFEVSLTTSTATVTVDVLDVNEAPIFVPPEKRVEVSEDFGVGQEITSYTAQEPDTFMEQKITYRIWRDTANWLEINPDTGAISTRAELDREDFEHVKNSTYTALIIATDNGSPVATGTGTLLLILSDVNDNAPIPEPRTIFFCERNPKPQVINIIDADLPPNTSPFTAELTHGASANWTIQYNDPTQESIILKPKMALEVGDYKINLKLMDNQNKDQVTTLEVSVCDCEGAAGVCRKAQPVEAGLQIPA


Experiments:
[1] = molecular target: T1, truncated 70 kDa form of E-cadherin …; assay: immunoprecipitation from DLD1 lysate, western blot, densitometry
Experimental: The specific binding of AT1636 to p70 E-cadherin was confirmed by western blot. AT1636 reactivity was compared to the commercially available EP700Y (Abcam, rabbit antibody) and a mouse antibody specific for the cytoplasmic domain of E-cadherin (clone 36/E, BD Biosciences). […] The E-cadherin antibody immunoprecipitation was performed from DLD1 cells with equal amounts of lysate (10 mg) and antibodies (2,5 μg). Input (40 μg) and IP samples (all) were run on SDS-PAGE and transferred to PVDF membrane (Bio-Rad) for immunoblotting. Using the antibody binding the intracellular domain of E-cadherin as well as the EP700Y antibody, the full length (120 kDa) E-cadherin as well as the 70 kDa protein were immunoprecipitated, while AT1636 mainly immunoprecipitated the 70 kDa protein (FIG. 2b). Thus AT1636 preferentially binds p70 over full length E-cadherin as shown by the enrichment for p70 over full length E-cadherin. Upon densitometric quantification of the signals, we find a 7-fold enrichment of p70 over full length in the AT1636 IP, compared to the EP700Y IP.

[2] = molecular target: T2, full length E-cadherin (about 120 kDa), …; assay: flow cytometry on DLD1 cells with TMTC3 shRNA against scrambled shRNA control
[3] = molecular target: T3, mouse E-cadherin on CMT93 cells; assay: flow cytometry on mouse CMT93 cells
[4] = molecular target: T4, recombinant soluble p70 E-cadherin …; assay: ELISA on captured p70 E-cadherin mFc
Experimental: (§1) TABLE 4 Calculation of the fold-increase in binding of the AT1636 variants compared to the parental AT1636 wild-type antibody to the Full-Length and p70 E-cadherin and the E-cadherin D3 mutated protein. EC₅₀ values were determined using Prism software. Fold increase in binding compared to AT1636 wild-type antibody
(§2) Recombinant E-cadherin mFc proteins were captured on 96-well plates (Costar) using goat-anti-mouse IgG Fcy antibodies (Jackson). […] Bound antibodies were visualized using a TMB substrate (Sigma) and the reaction was stopped with H₂SO₄(Merck) and quantified by OD450 measurement using an Envision plate reader (Perkin Elmer). As shown in FIG. 7b (two left panels), similar increased binding of AT1636-YN and -IYN antibody variants in comparison to AT1636 antibody was observed by ELISA to full length E-cadherin and p70. […] Here SC10.17, a humanized EC1 domain specific E-cadherin antibody binds full length E-cadherin but not the p70 truncated variant. Of note, all tested antibodies AT1636 variants, as well as AT1636 wild type, bind the truncated 70 kDa form of E-cadherin better than full length E-cadherin.

[5] = molecular target: T5, recombinant soluble full length …; assay: ELISA on captured full length E-cadherin mFc
Experimental: as §1, §2

Binder | fold enrichment of p70 over full length E-cadherin in the IP, compared to the EP700Y IP [1] | fold reduction in binding after TMTC3 knock-down [2] | binding result [3] | fold increase in binding compared to AT1636 wild-type antibody (ratio of ELISA EC50 values) [4] | fold increase in binding compared to AT1636 wild-type antibody (ratio of ELISA EC50 values) [5]
AT1636 (antibody, V domains shown, The original 7G02 antibody is IgG3; also called AT1636 wild-type; AT1636-wt) VH: EVQLVESGGGLVKPGGSLRLSCAASGFTFSNAWMNWVRQAPGKGLEWVGRIKSKIDGGTTEYTTPVKGRFTISRDDSKDTVYLHMKRLKTEDTAVYYCTPGVGANDPYYFDRWGQGVLVTVSS VL: not shown | 7 fold | > 3 fold | – | – | –
AT1636-YN (antibody, human IgG1, V domains shown, also called -NY; AT1636-NY) VH: EVQLVESGGGLVKPGGSLRLSCAASGFTFSYAWMNWVRQAPGKGLEWVGRIKSKIDGGTTEYTTPVKGRFTISRDDSKDTVYLHMKRLKTEDTAVYYCTPGVGANNPYYFDRWGQGVLVTVSS VL: not shown | – | – | binds | 56.5 fold | 28.4 fold
AT1636-I (antibody, human IgG1, V domains shown, also called T29I) VH: EVQLVESGGGLVKPGGSLRLSCAASGFIFSNAWMNWVRQAPGKGLEWVGRIKSKIDGGTTEYTTPVKGRFTISRDDSKDTVYLHMKRLKTEDTAVYYCTPGVGANDPYYFDRWGQGVLVTVSS VL: not shown | – | – | – | 2 fold | 2.6 fold
AT1636-E (antibody, human IgG1, V domains shown, also called G63E) VH: EVQLVESGGGLVKPGGSLRLSCAASGFTFSNAWMNWVRQAPGKGLEWVGRIKSKIDGETTEYTTPVKGRFTISRDDSKDTVYLHMKRLKTEDTAVYYCTPGVGANDPYYFDRWGQGVLVTVSS VL: not shown | – | – | – | 0.2 fold | 0.5 fold

The remaining lines, values ahead:

fold enrichment of p70 over full length E-cadherin in the IP, compared to the EP700Y IP [1] | fold reduction in binding after TMTC3 knock-down [2] | binding result [3] | fold increase in binding compared to AT1636 wild-type antibody (ratio of ELISA EC50 values) [4] | fold increase in binding compared to AT1636 wild-type antibody (ratio of ELISA EC50 values) [5] | Binder
– | – | – | 4.5 fold | 6 fold | AT1636-N (antibody, human IgG1, V domains shown, also called D112N) VH: EVQLVESGGGLVKPGGSLRLSCAASGFTFSNAWMNWVRQAPGKGLEWVGRIKSKIDGGTTEYTTPVKGRFTISRDDSKDTVYLHMKRLKTEDTAVYYCTPGVGANNPYYFDRWGQGVLVTVSS VL: not shown
– | – | – | 6.6 fold | 6.5 fold | AT1636-Y (antibody, human IgG1, V domains shown, also called N36Y) VH: EVQLVESGGGLVKPGGSLRLSCAASGFTFSYAWMNWVRQAPGKGLEWVGRIKSKIDGGTTEYTTPVKGRFTISRDDSKDTVYLHMKRLKTEDTAVYYCTPGVGANDPYYFDRWGQGVLVTVSS VL: not shown
– | – | binds | 28.6 fold | 34.3 fold | AT1636-IYEN (antibody, human IgG1, V domains shown) VH: EVQLVESGGGLVKPGGSLRLSCAASGFIFSYAWMNWVRQAPGKGLEWVGRIKSKIDGETTEYTTPVKGRFTISRDDSKDTVYLHMKRLKTEDTAVYYCTPGVGANNPYYFDRWGQGVLVTVSS VL: not shown
– | – | binds | 67.1 fold | 64.3 fold | AT1636-IYN (antibody, human IgG1, V domains shown) VH: EVQLVESGGGLVKPGGSLRLSCAASGFIFSYAWMNWVRQAPGKGLEWVGRIKSKIDGGTTEYTTPVKGRFTISRDDSKDTVYLHMKRLKTEDTAVYYCTPGVGANNPYYFDRWGQGVLVTVSS VL: not shown

Source: patent US20240317880A1 (KLING BIOTHERAPEUTICS B V, published 2024)
